One experiment addresses HLA-A*02:03. Briefly: IEDB peptide-MHC binding, purified MHC/competitive/radioactivity; filed as Kd, often an IC50 or EC50 that approximates it; ≥ and ≤ were set here for values at or beyond the usual limits of such assays.
The next experiment addresses HLA-A*02:02. Described as above.
A further experiment concerns the target HLA-A*02:06. The description is as above.
A further experiment deals with HLA-A*24:02. Described as above.
The target of the next experiment is HLA-A*03:01. Nature of the experiment: IEDB peptide-MHC binding, purified MHC/direct/fluorescence; filed as Kd, often an IC50 or EC50 that approximates it; ≥ and ≤ were set here for values at or beyond the usual limits of such assays. The note with it: source organism: Burkholderia ambifaria AMMD.
In another experiment the target is HLA-A*02:01. The description is as above.
The target of the next experiment is HLA-A*69:01. The description is as above.
The target in another experiment is HLA-B*27:05. The description is as above. The note with it: source organism: SARS-CoV1.
The target in a further experiment is HLA-A*01:01. The description is as above. The note with it: source organism: Influenza A virus (A/chicken/Nanchang/7-010/2000(H3N6)).
The next experiment has as its target HLA-A*11:01. The experiment is described as above. The note with it: source organism: Mycobacterium tuberculosis.
Setting [1] is: source organism: Vaccinia virus WR.
Where [2] appears, read: source organism: Yersinia pestis Antiqua.
Where [3] appears, read: source organism: Marburg virus - Musoke, Kenya, 1980.
[4] abbreviates: source organism: Mycobacterium tuberculosis.
The mark [5] stands for this setting: source organism: SARS coronavirus Tor2.
The mark [6] stands for this setting: source organism: Encephalitozoon cuniculi.
Setting [7] is: source organism: Mammarenavirus caliense.

The term Kd denotes the concentration at which binding is half-saturated.

With NMDWRSLTQV, the results for the Kd with HLA-A*02:03 (setting [1]), with HLA-A*02:02 (setting [1]) and with HLA-A*02:06 (setting [1]) were 17.4 nM, 100 nM and 1.69 nM, respectively.

Regarding NTKSDNIINI, the Kd with HLA-A*02:03 (setting [1]) was 1080 nM; with HLA-A*02:02 (setting [1]), ≥ 30800 nM; with HLA-A*02:06 (setting [1]), ≥ 69800 nM.

NYRPGYFTQ: the Kd with HLA-A*24:02 (source organism: Dengue virus 1 Brazil/97-11/1997) is ≥ 44400 nM.

Turning to PAHLINKLL, the Kd in the experiment with HLA-A*02:03 (setting [1]) is 6310 nM; in the experiment with HLA-A*02:02 (setting [1]), 6690 nM; in the experiment with HLA-A*02:06 (setting [1]), ≥ 42300 nM.

Regarding QMYRKFSRCT, the values for the Kd with HLA-A*02:03 (setting [1]), with HLA-A*02:02 (setting [1]) and with HLA-A*02:06 (setting [1]) were 2270 nM, ≥ 25700 nM and 14700 nM, respectively.

For the sequence QWMTTEDMLT, the Kd with HLA-A*24:02 (source organism: Dengue virus 3 Martinique/1243/1999) turned out to be 6100 nM.

For RFGTSLLFL, the Kd with HLA-A*24:02 (source organism: Dengue virus 4 Dominica/814669/1981) is 673 nM.

As for RIVVALSSLV, the Kd came to 7.21 nM in the experiment with HLA-A*02:03 (setting [1]), 47.6 nM in the experiment with HLA-A*02:02 (setting [1]) and 9.62 nM in the experiment with HLA-A*02:06 (setting [1]).

In turn, RLFARTGLE showed a Kd with HLA-A*03:01 of 748 nM.

With SIENKHQRRL, the Kd with HLA-A*02:03 (setting [1]) is ≥ 21100 nM; in the experiment with HLA-A*02:02 (setting [1]) it was 17000 nM; with HLA-A*02:06 (setting [1]), ≥ 53900 nM.

Turning to SLKRFTHTT, the Kd in the experiment with HLA-A*02:03 (setting [1]) is 9.05 nM; with HLA-A*02:02 (setting [1]), 825 nM; with HLA-A*02:06 (setting [1]) it was ≥ 60100 nM.

For SQFSYKELYV, the Kd stood at 27.2 nM with HLA-A*02:03 (setting [1]), 14.1 nM with HLA-A*02:02 (setting [1]) and 71.4 nM with HLA-A*02:06 (setting [1]).

Take SQGRGWFLL: the Kd in the experiment with HLA-A*02:01 (setting [2]) was 284 nM; with HLA-A*69:01 (setting [2]), ≥ 20000 nM.

SRYWEPEFY returned a Kd with HLA-B*27:05 of 1190 nM.

On to SSEDLNGMI, for which the Kd with HLA-A*01:01 was ≥ 20000 nM.

With STISWMMKL, the Kd with HLA-A*02:03 (setting [1]) amounted to 22.8 nM; with HLA-A*02:02 (setting [1]), 92.2 nM; with HLA-A*02:06 (setting [1]), 12.1 nM.

As to TAFFNTCKPT, the Kd is ≥ 22300 nM with HLA-A*02:03 (setting [1]), ≥ 31600 nM in the experiment with HLA-A*02:02 (setting [1]) and ≥ 33000 nM with HLA-A*02:06 (setting [1]).

Regarding TIKESLLKET, the figures for the Kd with HLA-A*02:03 (setting [1]), in the experiment with HLA-A*02:02 (setting [1]) and with HLA-A*02:06 (setting [1]) were 149 nM, 1580 nM and 87.2 nM, respectively.

As for TLLNETAKV, the Kd worked out at 83.1 nM with HLA-A*02:03 (setting [1]), 246 nM with HLA-A*02:02 (setting [1]) and 11.1 nM with HLA-A*02:06 (setting [1]).

Turning to TQVKELGIA, the Kd with HLA-A*02:03 (setting [1]) was 52.2 nM; with HLA-A*02:02 (setting [1]), 7220 nM; with HLA-A*02:06 (setting [1]), 55.6 nM.

Regarding TTENAAYQV, the Kd with HLA-A*02:03 (setting [1]) was ≥ 51300 nM; with HLA-A*02:02 (setting [1]) it was ≥ 77800 nM; in the experiment with HLA-A*02:06 (setting [1]), 442 nM.

Regarding TTFGRIGVK, the Kd with HLA-A*11:01 was 2 nM.

On to TVDFTDCRT, for which the figures for the Kd in the experiment with HLA-A*02:03 (setting [1]), in the experiment with HLA-A*02:02 (setting [1]) and with HLA-A*02:06 (setting [1]) were ≥ 27000 nM, 9680 nM and 339 nM, respectively.

Regarding TWAYHGSYET, in the experiment with HLA-A*24:02 (source organism: Dengue virus 2 Jamaica/1409/1983), the Kd turned out to be 2160 nM.

On to VISVIFYFI, for which the results for the Kd with HLA-A*02:03 (setting [1]), with HLA-A*02:02 (setting [1]) and with HLA-A*02:06 (setting [1]) were 729 nM, 1.4 nM and 497 nM, respectively.

With VLEKKVCAIT, the Kd in the experiment with HLA-A*02:03 (setting [1]) turned out to be 1240 nM; in the experiment with HLA-A*02:02 (setting [1]), 590 nM; with HLA-A*02:06 (setting [1]), 1680 nM.

Take VMNPLGLNV: the Kd stood at 320 nM with HLA-A*02:01 (setting [3]) and 780 nM with HLA-A*69:01 (setting [3]).

For the sequence VTDKTAYIGT, the figures for the Kd in the experiment with HLA-A*02:03 (setting [1]), with HLA-A*02:02 (setting [1]) and in the experiment with HLA-A*02:06 (setting [1]) were 4000 nM, ≥ 21800 nM and 227 nM, respectively.

Turning to VVEPPRQLV, the Kd is ≥ 5000 nM with HLA-A*02:01 (setting [4]) and 20000 nM in the experiment with HLA-A*69:01 (setting [4]).

For the sequence WVMDTLNGI, the Kd with HLA-A*02:03 (setting [1]) amounted to 1.01 nM; with HLA-A*02:02 (setting [1]), 9.78 nM; with HLA-A*02:06 (setting [1]) it was 0.731 nM.

Consider YLMCLSPLMA, for which the Kd with HLA-A*02:03 (setting [5]) was 0.127 nM; with HLA-A*02:02 (setting [5]), 0.237 nM; in the experiment with HLA-A*02:06 (setting [5]), 1.29 nM.

For the sequence YLPRFLFGV, in the experiment with HLA-A*02:01 (setting [4]), the Kd is 1.8 nM.

Take YLVPGEGEQ: the Kd with HLA-A*02:01 (setting [6]) is 7000 nM; in the experiment with HLA-A*69:01 (setting [6]) it was ≥ 20000 nM.

Regarding YMLFTKFFYL, the figures for the dissociation constant (Kd) with HLA-A*02:03 (setting [5]), with HLA-A*02:02 (setting [5]) and in the experiment with HLA-A*02:06 (setting [5]) were 45.8 nM, 47.7 nM and 20.3 nM, respectively.

With YNLSLSAAV, the Kd came to 1140 nM in the experiment with HLA-A*02:03 (setting [7]), 867 nM in the experiment with HLA-A*02:02 (setting [7]) and 1660 nM in the experiment with HLA-A*02:06 (setting [7]).

For YVILTILTI, the Kd with HLA-A*24:02 (source organism: Dengue virus 4 Philippines/H241/1956) worked out at 6010 nM.

The record behind these values is the Immune Epitope Database (IEDB).
